The results in this text go back to US20210063414A1, “METHODS FOR PREVENTING AND/OR TREATING BONE LOSS CONDITIONS BY MODULATING IRISIN” (Dana-Farber Cancer Institute, Inc., priority 2018, published 2021).

What all share (test): Crosslinking/co-immunoprecipitation/mass spectrometry (TMT quantitative proteomics) to identify irisin receptors
Common to all, as to format: binding

The target in assay [1] is T1, MLO-Y4 cell surface proteins (Mus musculus, UniProt Q3U2P1).
T1 construct: endogenous in cells; host or cells: MLO-Y4
T1 sequence (Q3U2P1 1-1090): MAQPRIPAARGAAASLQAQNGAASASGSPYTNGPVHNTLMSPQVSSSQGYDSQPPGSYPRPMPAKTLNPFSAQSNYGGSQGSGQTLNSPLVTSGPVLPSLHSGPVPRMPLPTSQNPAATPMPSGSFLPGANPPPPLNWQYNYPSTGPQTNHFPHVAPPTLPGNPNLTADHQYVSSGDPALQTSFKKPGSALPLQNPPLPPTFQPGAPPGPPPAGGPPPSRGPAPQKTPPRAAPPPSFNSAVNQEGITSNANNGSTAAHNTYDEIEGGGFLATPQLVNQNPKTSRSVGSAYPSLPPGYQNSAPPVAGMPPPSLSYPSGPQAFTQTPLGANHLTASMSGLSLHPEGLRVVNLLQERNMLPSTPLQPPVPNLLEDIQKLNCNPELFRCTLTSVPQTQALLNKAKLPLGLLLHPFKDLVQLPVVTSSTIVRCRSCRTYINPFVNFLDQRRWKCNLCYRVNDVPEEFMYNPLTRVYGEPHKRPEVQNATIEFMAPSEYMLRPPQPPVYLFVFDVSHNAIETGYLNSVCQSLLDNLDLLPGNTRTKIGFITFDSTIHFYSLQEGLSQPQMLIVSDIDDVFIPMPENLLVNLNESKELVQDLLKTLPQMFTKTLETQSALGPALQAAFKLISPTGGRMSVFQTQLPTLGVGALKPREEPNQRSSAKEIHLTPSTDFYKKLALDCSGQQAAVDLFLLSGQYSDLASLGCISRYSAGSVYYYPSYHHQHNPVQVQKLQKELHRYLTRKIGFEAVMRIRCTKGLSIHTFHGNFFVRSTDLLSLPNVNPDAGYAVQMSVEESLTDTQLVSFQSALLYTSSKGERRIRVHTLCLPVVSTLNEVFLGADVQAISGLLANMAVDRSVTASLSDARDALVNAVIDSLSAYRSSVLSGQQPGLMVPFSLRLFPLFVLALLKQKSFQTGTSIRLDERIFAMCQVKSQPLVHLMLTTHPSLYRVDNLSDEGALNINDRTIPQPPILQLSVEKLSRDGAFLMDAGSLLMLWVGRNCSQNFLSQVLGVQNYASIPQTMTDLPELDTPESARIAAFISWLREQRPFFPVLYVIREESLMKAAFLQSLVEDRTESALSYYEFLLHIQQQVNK
To be noted: co-precipitated protein Sec24a (SC24A_MOUSE). The essentials:
(§1)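 Mouse MLO-Y4 cells were switched to serum-free FreeStyle medium for 4 h, chilled, then exposed to 10 nM His-tagged irisin (or adipsin as control) for 20 min. Cells were crosslinked with 1.5 mM DTSSP (30 min, ice), and bound proteins were pulled down on Ni-NTA and eluted with 250 mM imidazole. Eluates were separated by SDS-PAGE, trypsin-digested in gel, TMT 6-plex labelled and quantified by MS3-based LC-MS/MS on an Orbitrap Fusion Lumos.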

In assay [2] the target is T2, MLO-Y4 cell surface proteins (Mus musculus, UniProt Q8R1I1).
T2 construct: endogenous in cells; host or cells: MLO-Y4
T2 sequence (Q8R1I1 1-64): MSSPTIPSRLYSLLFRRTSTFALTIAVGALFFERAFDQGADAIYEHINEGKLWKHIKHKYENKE
To be noted: co-precipitated protein Uqcr10 (QCR9_MOUSE). The essentials: as §1

The target in assay [3] is T3, MLO-Y4 cell surface proteins (Mus musculus, UniProt P59999).
T3 construct: endogenous in cells; host or cells: MLO-Y4
To be noted: co-precipitated protein Atpc4 (ARPC4_MOUSE). The essentials:
as §1

With adipsin, the TMT signal-to-noise ratio in assay [1] was 118.999; in assay [2], 243.198; in assay [3], 138.296.
